Laboratory results: patent publication US20140271653A1 (Regeneron, published 2014)

Assays:
[1] = molecular target: T1, RSV-F of RSV subtype A strain A2 (1540) (respiratory syncytial virus subtype A, …, UniProt P03420 26-574); experiment: cell-based or functional assay
[2] = molecular target: T1, RSV-F of RSV subtype A strain A2 (1540); experiment: cell-based or functional assay; remark: listed apart in the source
[3] = molecular target: T1, RSV-F of RSV subtype A strain A2 (1540); experiment: cell-based or functional assay; remark: listed apart in the source
[4] = molecular target: T2, RSV-F of RSV subtype A strain Long (respiratory syncytial virus subtype A, …, UniProt P12568 26-574); experiment: cell-based or functional assay
[5] = molecular target: T3, RSV-F of RSV subtype B strain 1580 (respiratory syncytial virus subtype B, …); experiment: cell-based or functional assay
[6] = molecular target: T4, RSV-F of RSV subtype B strain 9320 (respiratory syncytial virus subtype B, …); experiment: cell-based or functional assay
[7] = molecular target: T1, RSV-F of RSV subtype A strain A2 (1540); experiment: cell-based or functional assay; remark: listed apart in the source
[8] = molecular target: T3, RSV-F of RSV subtype B strain 1580; experiment: cell-based or functional assay; remark: listed apart in the source
[9] = molecular target: RSV-F S173Y of escape mutant RSV/A S173Y (respiratory syncytial virus subtype A, …, UniProt P03420 26-574); experiment: cell-based or functional assay
[10] = molecular target: RSV-F S173T of escape mutant RSV/B S173T (respiratory syncytial virus subtype B, …); experiment: cell-based or functional assay
[11] = molecular target: RSV-F T174K of escape mutant RSV/B T174K (respiratory syncytial virus subtype B, …); experiment: cell-based or functional assay
[12] = molecular target: RSV-F S173T/T174K of escape mutant RSV/B S173T/T174K (respiratory syncytial virus subtype B, …); experiment: cell-based or functional assay
[13] = molecular target: T1, RSV-F of RSV subtype A strain A2 (1540); experiment: cell-based or functional assay; remark: listed apart in the source
[14] = molecular target: T2, RSV-F of RSV subtype A strain Long; experiment: cell-based or functional assay; remark: listed apart in the source
[15] = molecular target: T4, RSV-F of RSV subtype B strain 9320; experiment: cell-based or functional assay; remark: listed apart in the source
[16] = molecular target: RSV-F of RSV subtype B strain 18537 (respiratory syncytial virus subtype B, …, UniProt P13843 26-574); experiment: cell-based or functional assay
[17] = molecular target: RSV-F of RSV subtype B strain 1400 (respiratory syncytial virus subtype B, …); experiment: cell-based or functional assay
[18] = molecular target: RSV-F of RSV subtype B strain 1A2 (respiratory syncytial virus subtype B, …); experiment: cell-based or functional assay
[19] = molecular target: RSV-F of RSV subtype A clinical isolate A2001/2-20 (respiratory syncytial virus subtype A, …); experiment: cell-based or functional assay
[20] = molecular target: RSV-F of RSV subtype A clinical isolate A2001/3-12 (respiratory syncytial virus subtype A, …); experiment: cell-based or functional assay
[21] = molecular target: RSV-F of RSV subtype A clinical isolate A1997/12-35 (respiratory syncytial virus subtype A, …); experiment: cell-based or functional assay
[22] = molecular target: RSV-F of RSV subtype A clinical isolate A1998/3-2 (respiratory syncytial virus subtype A, …); experiment: cell-based or functional assay
[23] = molecular target: RSV-F of RSV subtype A clinical isolate A1998/12-21 (respiratory syncytial virus subtype A, …); experiment: cell-based or functional assay
[24] = molecular target: RSV-F of RSV subtype A clinical isolate A2000/3-4 (respiratory syncytial virus subtype A, …); experiment: cell-based or functional assay
[25] = molecular target: T5, RSV-F.mmh (Respiratory Syncytial Virus); experiment: SPR (Biacore), mAb captured via Fc, soluble RSV-F.mmh injected, 25 C
T5 construct: also called recombinant RSV-F; soluble monomeric RSV-F

B1: Control I (palivizumab sequence) (antibody, V domains shown)
VH: QVTLRESGPALVKPTQTLTLTCTFSGFSLSTSGMSVGWIRQPPGKALEWLADIWWDDKKDYNPSLKSRLTISKDTSKNQVVLKVTNMDPADTATYYCARSMITNWYFDVWGAGTTVTVSS
VL: DIQMTQSPSTLSASVGDRVTITCKCQLSVGYMHWYQQKPGKAPKLLIYDTSKLASGVPSRFSGSGSGTEFTLTISSLQPDDFATYYCFQGSGYPFTFGGGTKLEIKR
notes: also called Control 1; SYNAGIS
IC50 of blocking viral fusion (antibody added after viral attachment at 4 C, infection read by ELISA) [1]: 1 nM | IC50 [pM] for RSV A2 Neutralization, Trial 1 [2]: 1820 pM | IC50 [pM] for RSV A2 Neutralization, Trial 2 [2]: 950 pM | IC50 [pM] for RSV A2 Neutralization, Trial 3 [2]: 290 pM | IC50 [pM] for RSV A2 Neutralization, Trial 5 [2]: 160 pM | IC50 [pM] for RSV A2 Neutralization, Trial 6 [2]: 500 pM | IC50 [pM] for RSV A2 Neutralization, Trial 7 [2]: 250 pM | RSV-A2 (1540) Neutral. IC50 [pM] [3]: 360 pM | RSV-Long Neutral. IC50 [pM] [4]: 536 pM | RSV - 1580 Neutral. IC50 [pM] [5]: 375 pM | RSV-9320 Neutral. IC50 [pM] [6]: 460 pM | Neutralization IC50, pM (microneutralization, wt subtype A) [7]: 1140 pM | Neutralization IC50, pM (microneutralization, wt subtype B) [8]: 1900 pM | Neutralization IC50, pM (microneutralization, escape mutant) [9]: 1710 pM | Neutralization IC50, pM (microneutralization, escape mutant) [10]: 1900 pM | Neutralization IC50, pM (microneutralization, escape mutant) [11]: 640 pM | Neutralization IC50, pM (microneutralization, escape mutant) [12]: 980 pM | IC50 (pM), RSV micro-neutralization, A/A2 [13]: 2080 pM | IC50 (pM), RSV micro-neutralization, A/Long [14]: 752 pM | IC50 (pM), RSV micro-neutralization, B/9320 [15]: 338 pM | IC50 (pM), RSV micro-neutralization, B/18537 [16]: 1190 pM | IC50 (pM), RSV micro-neutralization, B/1400 [17]: 113 pM | IC50 (pM), RSV micro-neutralization, B/1A2 [18]: 223 pM | IC50 (pM), RSV micro-neutralization, clinical isolate [19]: 935 pM | IC50 (pM), RSV micro-neutralization, clinical isolate [20]: 1260 pM | IC50 (pM), RSV micro-neutralization, clinical isolate [21]: 478 pM | IC50 (pM), RSV micro-neutralization, clinical isolate [22]: 344 pM | IC50 (pM), RSV micro-neutralization, clinical isolate [23]: 580 pM | IC50 (pM), RSV micro-neutralization, clinical isolate [24]: 899 pM | Kd [25]: 38.1 nM | t½ [25]: 4 min
